What all share (test): SET
In experiment [1] the target is BKV serotype III (ST3) virus-like particles (VLPs) (UniProt P14996 1-362).
In experiment [2] the target is BKV serotype II (ST2) virus-like particles (VLPs) (UniProt P14996 1-362).
Experiment [3] addresses BKV serotype I (ST1) virus-like particles (VLPs) (UniProt P03088 1-362).
In experiment [4] the target is BKV serotype IV (ST4) virus-like particles (VLPs) (UniProt P14996 1-362).

B1: NOV796 (antibody, V domains shown)
VH: QVQLVQSGPGLVKPSETLSLTCSVSGGSISGYYWSWIRQPPGKGLEWIGLIYESGSANYNPSLKSRVTISLDTSKNQFSLKLKSVTAADTAVYYCARRVRGWSYGMDVWGQGTTVAVSS
VL: DIVLTQSPGTLSLSPGETATLSCRASQILSSSFLAWFQQIPGQAPRLLIYAASSRATGIPDRFSGSGSGTDFSLTISRLEPEDFAVYYCQHYGSSPPWTFGQGTKVEIKR
With B1, the Kd in experiment [1] was 0.007 nM; in experiment [2], 0.006 nM; in experiment [3] it was 0.003 nM; in experiment [4] it was 0.0009 nM.

B2: NOV581 (antibody, V domains shown)
VH: QVQLVESGGGLVQPGGSLRLSCVASGFTFSGYNMHWVRQAPGKGLEWVSYISNSGRTIYYADSVKGRFTLSRDNAKNSLYLQMNSLRAEDTAVYFCARDRDPQWLGNDALQIWGQGTMVTVSS
VL: EIVLTQSPGTLSLSPGERATLSCRASQSVSSGYLAWYQQKPGQAPRLLIYGASSRATGIPDRFSGSGSGTDFTLTISRLEPEDFAVYYCQQYGTSRKTFGQGTKVEIKR
As for B2, the Kd was 0.092 nM in experiment [1], 0.069 nM in experiment [2], 0.044 nM in experiment [3] and > 6.6 nM in experiment [4].

B3: NOV530 (antibody, V domains shown)
VH: QVQLQESGPGLVKPSQTLSLTCTVSGGSISGGGYYWSWIRQHPGKGLEFIGYIYYNRGTYYNPALKSRLTISVDTSKNDFSLKLSSVSAADTAVYYCARCVLGGYGSDAFDRWGQGTTVTVAS
VL: EIVLTQSPVTLSLSPGERAILSCRASQSVSSHLAWYQQKPGQAPRLLIYDASSRANGIPARFSGSGSGTDFTLTISSLAPEDFAVYYCQQRSSWPPSLTFGGGTKVEIRR
Molecule B3 registered a Kd in experiment [3] of 0.015 nM.

A word on the Kd: it is a measure of binding affinity in units of concentration. Higher therefore signals a looser complex.

The values above are taken from US20200384109A1 (published 2020).
